Reference: US20070224186A1
Where no end group is shown, it is not given here.

Molecular target: EG(2)-HepN
Assay: competitive ELISA with EG(2)-HepN; competitor N-terminally biotinylated hepcidin-(28-47)

PQQTGQLAELQPQDRAGARA (not fully specified (C-terminus)) [hepcidin-(28-47)]
detection limit of the ELISA: 0.1 ng/well
